Test results reported in patent US20190292221A1 (published 2019).

Legend:
Human EGFR-his [1] = molecular target: T1, Human EGFR-his (human, UniProt P00533 25-645); assay: SPR, BEAT®3 captured on Protein G chip, EGFR-his injected; sample after high pH, 24 h
T1 construct: Soluble his-tagged antigen injected over captured BEAT®3; also called hsEGFR; not shown: his tag

Human EGFR-his [2] = molecular target: T1, Human EGFR-his; assay: SPR, BEAT®3 captured on Protein G chip, EGFR-his injected; sample after high pH, 0 h
Human EGFR-his [3] = molecular target: T1, Human EGFR-his; assay: SPR, BEAT®3 captured on Protein G chip, EGFR-his injected; average of 4 replicates of Reference #1 and #2
Method: The second assay, aims to determine the binding affinity to Human EGFR-his antigen. It was performed with a Serie S Sensor Chip Protein G (GE Healthcare).

Human EGFR-his [4] = molecular target: T1, Human EGFR-his; assay: SPR, BEAT®3 captured on Protein G chip, EGFR-his injected; sample after high pH, 4 h
Human EGFR-his [5] = molecular target: T1, Human EGFR-his; assay: SPR, BEAT®3 captured on Protein G chip, EGFR-his injected; sample after high pH, 2 h

B1: BEAT®3 (bispecific antibody, human IgG1, kappa, L234A L235A)
chain 1: EVQLVESGGGLVQPGGSLRLSCAASGFTFNTYAMNWVRQAPGKGLEWVARIRSKYNNYATYYADSVKSRFTISRDDSKNTLYLQMNSLRAEDTAVYYCVRHGNFGNSYVSYFAYWGQGTTVTVSSGGGGSGGGGSGGGGSEIVVTQSPATLSVSPGERATLSCRSSTGAVTESNYANWVQEKPGQAFRGLIGGANKRAPGVPARFSGSLSGDEATLTISSLQSEDFAVYYCALFYSNTWVFGQGTKLEIKGGGGTQVQLQESGPGLVKPSETLSLTCTVSGGSVSSGDYYWTWIRQSPGKGLEWIGHIYYSGNTNYNPSLKSRLTISIDTSKTQFSLKLSSVTAADTAIYYCVRDRVTGAFDIWGQGTMVTVSSASTKGPSVFPLAPSSKSTSGGTAALGCLVKDYFPEPVTVSWNSGALTSGVHTFPAVLQSSGLYSLSSVVTVPSSSLGTQTYICNVNHKPSNTKVDKKVEPKSCDKTHTCPPCPAPEAAGGPSVFLFPPKPKDTLMISRTPEVTCVVVDVSHEDPEVQFKWYVDGVEVHNAKTKPREEQYNSTFRVVSVLTVLHQDWLNGKEYKCKVSNKALPAPIEKTISKTKGQPREPAVYTLPPSREEMTKNQVKLVCLVTGFYPSDIAVEWESSGQPENNYYTTPPMLDSDGSFSLVSWLNVDKSRWQQGNIFSCSVMHEALHNRFTQKSLSLSPG
chain 2: not shown
chain 3: DKTHTCPPCPAPEAAGGPSVFLFPPKPKDTLMISRTPEVTCVVVDVSHEDPEVKFNWYVDGVEVHNAKTKPREEQYNSTYRVVSVLTVLHQDWLNGKEYKCKVSNKALPAPIEKTISKAKGQPREPEVATFPPSRDELTKNQVTLVCLVTGFYPSDIAVEWESNGQPENNYKTDPPLLESDGSFALSSRLRVDKSRWQQGNVFSCSVMHEALHNHYTQKSLSLSPG
notes: also called third BEAT antibody
Human EGFR-his [1]
  Average rel KD: 1.15 relative to reference
  Relative KD R1: 1.17 relative to reference
Human EGFR-his [2]
  Average rel KD: 0.98 relative to reference
  Relative KD R1: 0.988 relative to reference
Human EGFR-his [3]
  Average rel KD: 1 relative to reference
Human EGFR-his [4]
  Average rel KD: 1.09 relative to reference
  Relative KD R1: 1.11 relative to reference
Human EGFR-his [5]
  Average rel KD: 1.02 relative to reference
  Relative KD R1: 1.02 relative to reference
